The record followed here is the supplement of paper PMC7125110.

± gives the standard error. For some of these results: Fewer inactive variants are shown than the library holds.

The chains are these.
B1: glmS ribozyme (parent)
chain: AUAAAAGCGCCAGAACUACAGAAAUGUAGUUGACGAGGAGGAGGUUUAUCGAAUUUUCGGCGGAUGCCUCCAAA

What all share (settings): with glucosamine-6-phosphate
Data set [1] covers variants of B1. In words: kcat; higher = faster cleavage; RNA array. An outline of the steps: (§1)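 Barcoded ribozyme variants on sequenced MiSeq chips were transcribed in situ by E. coli RNA polymerase and followed at 37 °C through a hybridised Cy3 probe. Glucosamine-6-phosphate at 40 μM to 10 mM in HEPES/KCl/Mg(OAc)2 buffer was flowed in, and tiles were imaged over ~14 h. Signals were normalised to baseline and to non-cleaving reference variants, and per-tile medians were fit to one- or two-exponential decays to give kobs. Weighted Michaelis–Menten fits across concentrations gave kcat and KM.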

The variants in data set [2] derive from B1. Description: KM; higher = weaker cofactor use; RNA array. An outline of the steps:
as §1

Data set [3] covers variants of B1. Description: self-cleavage kobs at 40 uM GlcN6P; higher = faster cleavage; RNA array. The essentials:
as §1

The variants in data set [4] derive from B1. Description: self-cleavage kobs at 160 uM GlcN6P; higher = faster cleavage; RNA array. The essentials:
as §1

Data set [5] covers variants of B1. In words: self-cleavage kobs at 640 uM GlcN6P; higher = faster cleavage; RNA array. The essentials: as §1
In data set [6] the parent is B1. Description: self-cleavage kobs at 2500 uM GlcN6P; higher = faster cleavage; RNA array. An outline of the steps:
as §1

Data set [7] covers variants of B1. In words: self-cleavage kobs at 10000 uM GlcN6P; higher = faster cleavage; RNA array. The essentials: as §1

As usually defined, the kcat is the number of substrate molecules converted per active site and unit of time at saturation. Turning to A14G C61A, the turnover number (kcat) in the data set with glucosamine-6-phosphate [1] is 1.1e-05 ± 4.8e-06 s⁻¹.
A word on the KM: it is the substrate concentration at which the rate is half of its maximum. Take C16G U56A: in the data set with glucosamine-6-phosphate [1], the catalytic constant (kcat) was found to be 0.00335 ± 0.00047 s⁻¹. Also, in the data set with glucosamine-6-phosphate [2], the Michaelis constant (KM) worked out at 2810 ± 590 µM. Moreover, in the data set with glucosamine-6-phosphate [3], the “self-cleavage kobs at 40 uM GlcN6P” value was determined as 5.21e-05 ± 9.6e-06 s⁻¹. Besides, the “self-cleavage kobs at 160 uM GlcN6P” value in the data set with glucosamine-6-phosphate [4] amounted to 0.000189 ± 6.3e-05 s⁻¹. For the same variant, the “self-cleavage kobs at 640 uM GlcN6P” value in the data set with glucosamine-6-phosphate [5] was 0.000593 ± 0.00014 s⁻¹. For the same variant, the “self-cleavage kobs at 2500 uM GlcN6P” value in the data set with glucosamine-6-phosphate [6] came out at 0.00135 ± 0.00026 s⁻¹. Further, the “self-cleavage kobs at 10000 uM GlcN6P” value with glucosamine-6-phosphate [7] is 0.00286 ± 0.00043 s⁻¹.
For U45G C67A, the kcat in the data set with glucosamine-6-phosphate [1] came to 0.00845 ± 0.0014 s⁻¹. In addition, in the data set with glucosamine-6-phosphate [2], the Michaelis constant (KM) was found to be 2670 ± 590 µM. In the data set with glucosamine-6-phosphate [3], the “self-cleavage kobs at 40 uM GlcN6P” value was 0.000114 ± 1.8e-05 s⁻¹. The “self-cleavage kobs at 160 uM GlcN6P” value with glucosamine-6-phosphate [4] was determined as 0.000663 ± 0.00016 s⁻¹. Besides, in the data set with glucosamine-6-phosphate [5], the “self-cleavage kobs at 640 uM GlcN6P” value was 0.00177 ± 0.00033 s⁻¹. In the data set with glucosamine-6-phosphate [6], the “self-cleavage kobs at 2500 uM GlcN6P” value came out at 0.00369 ± 0.001 s⁻¹. In addition, the “self-cleavage kobs at 10000 uM GlcN6P” value with glucosamine-6-phosphate [7] is 0.00674 ± 0.0011 s⁻¹.
On to A48G G59A, for which, in the data set with glucosamine-6-phosphate [1], the kcat amounted to 5.08e-05 ± 1.8e-05 s⁻¹. Moreover, the “self-cleavage kobs at 2500 uM GlcN6P” value with glucosamine-6-phosphate [6] came out at 6.29e-05 ± 1.8e-05 s⁻¹.
As for G40C U46C, the kcat with glucosamine-6-phosphate [1] is 0.00119 ± 0.00012 s⁻¹. Besides, the Michaelis constant (KM) with glucosamine-6-phosphate [2] was 1800 ± 280 µM. Also, in the data set with glucosamine-6-phosphate [4], the “self-cleavage kobs at 160 uM GlcN6P” value was determined as 9.41e-05 ± 1.9e-05 s⁻¹. For the same variant, the “self-cleavage kobs at 640 uM GlcN6P” value in the data set with glucosamine-6-phosphate [5] was found to be 0.000304 ± 6.3e-05 s⁻¹. In addition, the “self-cleavage kobs at 2500 uM GlcN6P” value with glucosamine-6-phosphate [6] was found to be 0.000729 ± 0.00014 s⁻¹. The “self-cleavage kobs at 10000 uM GlcN6P” value with glucosamine-6-phosphate [7] was 0.000967 ± 0.00024 s⁻¹.
For the variant C11U C71A, the kcat with glucosamine-6-phosphate [1] amounted to 0.000412 ± 2.6e-05 s⁻¹. Also, the KM with glucosamine-6-phosphate [2] stood at 1790 ± 200 µM. Besides, in the data set with glucosamine-6-phosphate [4], the “self-cleavage kobs at 160 uM GlcN6P” value was determined as 4.15e-05 ± 1.7e-05 s⁻¹. For the same variant, the “self-cleavage kobs at 640 uM GlcN6P” value in the data set with glucosamine-6-phosphate [5] is 0.000106 ± 1.5e-05 s⁻¹. The “self-cleavage kobs at 2500 uM GlcN6P” value in the data set with glucosamine-6-phosphate [6] turned out to be 0.00024 ± 4.4e-05 s⁻¹. For the same variant, the “self-cleavage kobs at 10000 uM GlcN6P” value with glucosamine-6-phosphate [7] came to 0.000354 ± 6.1e-05 s⁻¹.
Turning to G37C A53G, in the data set with glucosamine-6-phosphate [1], the catalytic constant (kcat) came out at 3.88e-05 ± 1.1e-05 s⁻¹. Moreover, in the data set with glucosamine-6-phosphate [3], the “self-cleavage kobs at 40 uM GlcN6P” value was less than 1e-05 s⁻¹. In addition, the “self-cleavage kobs at 2500 uM GlcN6P” value with glucosamine-6-phosphate [6] came to 5.73e-05 ± 1.6e-05 s⁻¹. Moreover, in the data set with glucosamine-6-phosphate [7], the “self-cleavage kobs at 10000 uM GlcN6P” value stood at 3.11e-05 ± 1.1e-05 s⁻¹.
Turning to C11U G40C, the kcat in the data set with glucosamine-6-phosphate [1] worked out at 0.000197 ± 1.3e-05 s⁻¹. In addition, the Michaelis constant (KM) with glucosamine-6-phosphate [2] stood at 2960 ± 470 µM. Moreover, the “self-cleavage kobs at 640 uM GlcN6P” value in the data set with glucosamine-6-phosphate [5] came out at 3.93e-05 ± 1.6e-05 s⁻¹. Besides, in the data set with glucosamine-6-phosphate [6], the “self-cleavage kobs at 2500 uM GlcN6P” value was 8.9e-05 ± 1.4e-05 s⁻¹. Also, the “self-cleavage kobs at 10000 uM GlcN6P” value with glucosamine-6-phosphate [7] came out at 0.000153 ± 1.9e-05 s⁻¹.
On to A52C U57C, for which, in the data set with glucosamine-6-phosphate [1], the turnover number (kcat) was found to be 3.44e-05 ± 6.5e-06 s⁻¹. In addition, the “self-cleavage kobs at 2500 uM GlcN6P” value with glucosamine-6-phosphate [6] is 4.64e-05 ± 1.6e-05 s⁻¹. For the same variant, in the data set with glucosamine-6-phosphate [7], the “self-cleavage kobs at 10000 uM GlcN6P” value came to 2.95e-05 ± 1e-05 s⁻¹.
In the case of G44C U46A, the turnover number (kcat) in the data set with glucosamine-6-phosphate [1] is 7.73e-05 ± 1.3e-05 s⁻¹. For the same variant, in the data set with glucosamine-6-phosphate [3], the “self-cleavage kobs at 40 uM GlcN6P” value is less than 1e-05 s⁻¹. Moreover, the “self-cleavage kobs at 2500 uM GlcN6P” value with glucosamine-6-phosphate [6] amounted to 0.000108 ± 2.5e-05 s⁻¹. Besides, the “self-cleavage kobs at 10000 uM GlcN6P” value in the data set with glucosamine-6-phosphate [7] turned out to be 7.15e-05 ± 9.9e-06 s⁻¹.
For the variant A33C G66U, the turnover number (kcat) with glucosamine-6-phosphate [1] was determined as 2.18e-05 ± 4.2e-07 s⁻¹. In addition, in the data set with glucosamine-6-phosphate [2], the Michaelis-Menten constant (KM) was found to be 2420 ± 190 µM. The “self-cleavage kobs at 40 uM GlcN6P” value in the data set with glucosamine-6-phosphate [3] is less than 1e-05 s⁻¹.
As for C10U A33U U54C, in the data set with glucosamine-6-phosphate [1], the turnover number (kcat) is 4.81e-05 ± 4.1e-06 s⁻¹. Besides, the Michaelis-Menten constant (KM) in the data set with glucosamine-6-phosphate [2] amounted to 3720 ± 750 µM. In addition, the “self-cleavage kobs at 10000 uM GlcN6P” value in the data set with glucosamine-6-phosphate [7] stood at 3.5e-05 ± 1.5e-05 s⁻¹.
As for A53U U56C C71U, in the data set with glucosamine-6-phosphate [1], the kcat is 0.00121 ± 0.00019 s⁻¹. In addition, the KM with glucosamine-6-phosphate [2] is 4240 ± 1000 µM. The “self-cleavage kobs at 160 uM GlcN6P” value with glucosamine-6-phosphate [4] amounted to 4.8e-05 ± 1.3e-05 s⁻¹. The “self-cleavage kobs at 2500 uM GlcN6P” value in the data set with glucosamine-6-phosphate [6] came to 0.000406 ± 9.1e-05 s⁻¹. Also, in the data set with glucosamine-6-phosphate [7], the “self-cleavage kobs at 10000 uM GlcN6P” value came out at 0.000903 ± 0.0002 s⁻¹.
For the variant G38A C67A, in the data set with glucosamine-6-phosphate [1], the turnover number (kcat) was less than 1e-05 s⁻¹. In the data set with glucosamine-6-phosphate [3], the “self-cleavage kobs at 40 uM GlcN6P” value is less than 1e-05 s⁻¹.
As for A12U G40A, the kcat in the data set with glucosamine-6-phosphate [1] worked out at 0.0133 ± 0.0024 s⁻¹. For the same variant, the Michaelis constant (KM) in the data set with glucosamine-6-phosphate [2] is 1110 ± 310 µM. The “self-cleavage kobs at 40 uM GlcN6P” value in the data set with glucosamine-6-phosphate [3] came out at 0.000618 ± 0.00017 s⁻¹. Also, the “self-cleavage kobs at 160 uM GlcN6P” value with glucosamine-6-phosphate [4] turned out to be 0.00156 ± 0.00048 s⁻¹. Besides, the “self-cleavage kobs at 640 uM GlcN6P” value with glucosamine-6-phosphate [5] worked out at 0.0042 ± 0.001 s⁻¹. The “self-cleavage kobs at 2500 uM GlcN6P” value in the data set with glucosamine-6-phosphate [6] turned out to be 0.00929 ± 0.0029 s⁻¹. Further, in the data set with glucosamine-6-phosphate [7], the “self-cleavage kobs at 10000 uM GlcN6P” value is 0.013 ± 0.0034 s⁻¹.
As for U30G G37C, in the data set with glucosamine-6-phosphate [1], the kcat turned out to be 1.26e-05 ± 3.7e-06 s⁻¹. The “self-cleavage kobs at 40 uM GlcN6P” value in the data set with glucosamine-6-phosphate [3] is less than 1e-05 s⁻¹.
Take A39C U54C: the kcat with glucosamine-6-phosphate [1] was determined as 0.00666 ± 0.0019 s⁻¹. For the same variant, the Michaelis constant (KM) in the data set with glucosamine-6-phosphate [2] turned out to be 2400 ± 1100 µM. Also, the “self-cleavage kobs at 40 uM GlcN6P” value with glucosamine-6-phosphate [3] amounted to 0.000105 ± 2.5e-05 s⁻¹. The “self-cleavage kobs at 640 uM GlcN6P” value in the data set with glucosamine-6-phosphate [5] is 0.00125 ± 0.0003 s⁻¹. For the same variant, the “self-cleavage kobs at 2500 uM GlcN6P” value with glucosamine-6-phosphate [6] worked out at 0.00481 ± 0.00084 s⁻¹. Also, the “self-cleavage kobs at 10000 uM GlcN6P” value with glucosamine-6-phosphate [7] was 0.00475 ± 0.00095 s⁻¹.
